Data set [1] deals with VEGF-A165 (Homo sapiens) (UniProt P15692). The note with it: cited from earlier work.
The target is the same in data set [2]. The note with it: cited from earlier work. The source holds these as a separate data set.
Data set [3] is described as follows: SEC; as a9; sample: ziv-AFL 25 mg/mL, 60 °C for 1 h.
Data set [4] can be described thus: SEC; as a9; sample: ziv-AFL diluted in NaCl 1.5 M.
Data set [5] in a line: SEC; as a9; sample: ziv-AFL diluted in GndHCl 8 M.
Data set [6] in a line: SEC; as a9; sample: ziv-AFL 25 mg/mL, 60 °C for 3 h.
Data set [7] can be described thus: SEC; as a9; sample: ziv-AFL medicine adjusted to pH 5.2.
For data set [8], the target named is ziv-aflibercept (Zaltrap, 25 mg/mL) (human). Description: SEC; as a9; sample: ziv-AFL 25 mg/mL, 60 °C for 1 h.
The target is the same in data set [9]. Description: SEC; as a9; sample: ziv-AFL diluted in NaCl 1.5 M.
The target is the same in data set [10]. Description: SEC; as a9; sample: ziv-AFL diluted in GndHCl 8 M.
For data set [11] the target is unchanged. Description: SEC; as a9; sample: ziv-AFL 25 mg/mL, light irradiation (250 W/m^2) for 12 h.
For data set [12] the target is unchanged. Description: SEC; as a9; sample: ziv-AFL 25 mg/mL, 2 freeze-thaw cycles.
Data set [13] shares this target. Description: SEC; as a9; sample: ziv-AFL 25 mg/mL, 1 freeze-thaw cycle.
Data set [14] shares this target. Description: SEC; SE-HPLC/DAD, SEC-5 column, 25 °C, 150 mM phosphate pH 7.0, 0.35 mL/min, 1 ul injected; masses estimated from the column calibration; sample: fresh (control) ziv-AFL 25 mg/mL.
Data set [15] shares this target. Description: SEC; as a9; sample: ziv-AFL 25 mg/mL, light irradiation (250 W/m^2) for 12 h. The source holds these as a separate data set.
The target is the same in data set [16]. Description: SEC; as a9; sample: ziv-AFL 25 mg/mL, 60 °C for 2 h.
Data set [17] has the same target. Description: SEC; as a9; sample: ziv-AFL 25 mg/mL, 60 °C for 3 h.
Data set [18] concerns the target VEGF (UniProt P15692). Description: ELISA; as a1; sample: ziv-AFL medicine adjusted to pH 5.2 with 0.1 M HCl.
The target of data set [19] is VEGF (UniProt P15692). Description: ELISA; as a1; sample: ziv-AFL medicine adjusted to pH 7.2 with 1 M NH3.
Data set [20] deals with ziv-aflibercept (Zaltrap, 25 mg/mL) (human). Description: SEC; as a9; sample: ziv-AFL medicine adjusted to pH 7.2.
Data set [21] shares this target. Description: SEC; as a9; sample: ziv-AFL medicine adjusted to pH 5.2.

Like-named read-outs stand apart in the source and are kept apart here.

We go through four substances from paper PMC7021693.

Sequence of ziv-aflibercept (Zaltrap, 25 mg/mL) (chain): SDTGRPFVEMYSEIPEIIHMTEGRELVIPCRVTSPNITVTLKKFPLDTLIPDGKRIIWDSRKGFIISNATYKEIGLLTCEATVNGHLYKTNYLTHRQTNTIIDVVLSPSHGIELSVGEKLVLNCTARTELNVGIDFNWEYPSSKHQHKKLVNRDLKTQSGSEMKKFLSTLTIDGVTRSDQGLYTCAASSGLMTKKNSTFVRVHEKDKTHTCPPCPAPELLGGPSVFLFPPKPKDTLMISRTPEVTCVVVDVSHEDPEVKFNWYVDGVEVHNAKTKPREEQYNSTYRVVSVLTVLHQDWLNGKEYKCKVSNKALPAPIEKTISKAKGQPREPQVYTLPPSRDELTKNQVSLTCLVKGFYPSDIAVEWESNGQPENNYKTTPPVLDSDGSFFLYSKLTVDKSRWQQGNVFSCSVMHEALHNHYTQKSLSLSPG
Sequence of ziv-aflibercept (Zaltrap, 25 mg/mL) (Fc fusion) (chain): as above
Sequence of VEGF-A165 (Homo sapiens) (P15692 whole entry): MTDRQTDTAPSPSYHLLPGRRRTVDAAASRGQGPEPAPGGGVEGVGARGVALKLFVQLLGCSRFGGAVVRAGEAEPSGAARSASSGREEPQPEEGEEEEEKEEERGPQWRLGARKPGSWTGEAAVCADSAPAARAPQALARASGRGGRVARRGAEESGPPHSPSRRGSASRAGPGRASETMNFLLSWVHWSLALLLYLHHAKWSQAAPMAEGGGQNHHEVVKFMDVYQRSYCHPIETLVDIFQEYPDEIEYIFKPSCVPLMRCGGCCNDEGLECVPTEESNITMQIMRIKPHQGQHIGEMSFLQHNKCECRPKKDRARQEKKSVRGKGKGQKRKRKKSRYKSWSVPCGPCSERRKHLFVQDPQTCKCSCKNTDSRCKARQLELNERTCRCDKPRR
Sequence of VEGFR2 (P35968 20-1356): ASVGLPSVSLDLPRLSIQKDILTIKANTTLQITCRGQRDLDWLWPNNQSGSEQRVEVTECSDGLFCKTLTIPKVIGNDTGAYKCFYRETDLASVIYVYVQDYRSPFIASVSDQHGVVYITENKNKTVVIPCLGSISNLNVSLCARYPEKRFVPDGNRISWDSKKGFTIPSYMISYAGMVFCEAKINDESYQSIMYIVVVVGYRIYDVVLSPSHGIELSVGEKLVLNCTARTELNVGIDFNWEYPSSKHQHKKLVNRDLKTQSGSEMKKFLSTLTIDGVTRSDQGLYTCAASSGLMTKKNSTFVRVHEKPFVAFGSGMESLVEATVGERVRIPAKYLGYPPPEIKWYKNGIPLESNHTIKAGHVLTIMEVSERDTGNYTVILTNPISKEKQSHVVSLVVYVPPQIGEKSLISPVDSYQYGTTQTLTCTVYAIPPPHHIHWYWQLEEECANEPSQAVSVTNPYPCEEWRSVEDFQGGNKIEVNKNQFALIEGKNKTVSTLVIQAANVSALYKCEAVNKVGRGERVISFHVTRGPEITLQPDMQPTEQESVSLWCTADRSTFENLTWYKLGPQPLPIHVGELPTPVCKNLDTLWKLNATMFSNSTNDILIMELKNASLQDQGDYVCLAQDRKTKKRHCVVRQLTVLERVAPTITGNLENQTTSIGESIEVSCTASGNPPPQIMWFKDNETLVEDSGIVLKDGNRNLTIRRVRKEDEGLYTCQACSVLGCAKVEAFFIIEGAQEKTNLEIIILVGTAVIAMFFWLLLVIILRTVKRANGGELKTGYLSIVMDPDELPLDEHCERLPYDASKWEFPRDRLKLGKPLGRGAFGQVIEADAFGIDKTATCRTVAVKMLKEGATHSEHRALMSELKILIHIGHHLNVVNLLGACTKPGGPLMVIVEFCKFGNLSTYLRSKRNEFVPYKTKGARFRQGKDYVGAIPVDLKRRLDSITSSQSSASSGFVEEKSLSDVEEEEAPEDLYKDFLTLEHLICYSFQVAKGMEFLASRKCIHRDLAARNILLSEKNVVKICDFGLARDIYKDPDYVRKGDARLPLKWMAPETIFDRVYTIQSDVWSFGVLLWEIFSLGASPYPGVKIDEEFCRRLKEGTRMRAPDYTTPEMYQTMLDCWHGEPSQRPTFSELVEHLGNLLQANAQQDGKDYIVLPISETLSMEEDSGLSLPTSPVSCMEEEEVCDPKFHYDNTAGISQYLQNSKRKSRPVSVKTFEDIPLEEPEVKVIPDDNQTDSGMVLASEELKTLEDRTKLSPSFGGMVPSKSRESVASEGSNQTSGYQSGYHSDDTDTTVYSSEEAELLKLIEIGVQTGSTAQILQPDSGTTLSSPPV
Sequence of VEGFR1 (P17948 27-1338): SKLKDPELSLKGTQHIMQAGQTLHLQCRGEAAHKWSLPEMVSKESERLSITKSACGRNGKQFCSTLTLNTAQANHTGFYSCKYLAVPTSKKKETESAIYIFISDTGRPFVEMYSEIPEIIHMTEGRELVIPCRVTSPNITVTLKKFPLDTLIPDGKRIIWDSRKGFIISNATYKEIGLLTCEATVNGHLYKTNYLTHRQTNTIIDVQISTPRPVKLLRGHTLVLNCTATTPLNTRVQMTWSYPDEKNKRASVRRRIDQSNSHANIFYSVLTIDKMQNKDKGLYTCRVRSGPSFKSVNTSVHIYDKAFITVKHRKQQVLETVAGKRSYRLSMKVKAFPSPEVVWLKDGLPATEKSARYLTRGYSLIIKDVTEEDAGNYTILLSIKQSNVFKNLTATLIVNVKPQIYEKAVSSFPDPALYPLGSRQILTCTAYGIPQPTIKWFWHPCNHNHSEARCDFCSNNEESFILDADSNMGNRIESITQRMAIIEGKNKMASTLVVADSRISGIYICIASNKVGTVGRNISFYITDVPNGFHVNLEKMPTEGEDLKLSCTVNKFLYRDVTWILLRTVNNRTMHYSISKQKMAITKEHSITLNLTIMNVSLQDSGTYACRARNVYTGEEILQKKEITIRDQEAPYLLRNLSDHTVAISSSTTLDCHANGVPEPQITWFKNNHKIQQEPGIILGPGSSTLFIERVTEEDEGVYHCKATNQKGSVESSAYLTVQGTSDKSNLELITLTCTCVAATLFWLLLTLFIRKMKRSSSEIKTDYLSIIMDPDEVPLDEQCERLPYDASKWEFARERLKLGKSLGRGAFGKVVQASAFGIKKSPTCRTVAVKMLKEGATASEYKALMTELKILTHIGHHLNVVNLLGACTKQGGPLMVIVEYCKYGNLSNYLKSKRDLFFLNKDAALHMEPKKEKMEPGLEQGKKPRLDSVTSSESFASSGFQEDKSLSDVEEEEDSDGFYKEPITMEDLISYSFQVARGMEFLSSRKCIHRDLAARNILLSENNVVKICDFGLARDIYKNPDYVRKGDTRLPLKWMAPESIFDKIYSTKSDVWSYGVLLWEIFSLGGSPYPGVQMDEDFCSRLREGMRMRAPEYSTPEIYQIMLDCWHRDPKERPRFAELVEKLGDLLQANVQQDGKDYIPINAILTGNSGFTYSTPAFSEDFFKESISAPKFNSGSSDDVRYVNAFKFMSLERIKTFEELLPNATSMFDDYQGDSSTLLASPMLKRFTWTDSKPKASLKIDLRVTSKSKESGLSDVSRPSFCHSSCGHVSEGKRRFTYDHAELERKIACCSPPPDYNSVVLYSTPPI

On to VEGFR1 (from UniProt P17948), for which, in the data set with VEGF-A165 (Homo sapiens) [1], the Kd is 0.00933 nM.

Turning to VEGFR2 (from UniProt P35968), the Kd with VEGF-A165 (Homo sapiens) [2] was 0.0888 nM.

Take ziv-aflibercept (Zaltrap, 25 mg/mL): the abundance of non-natural HMW aggregates (% of total peak area) is 22.1% in [3]; 1.1% in data set [4]; 7.2% and a higher order of aggregation at 5.46 min (5.56%) in data set [5]; 55.2% in [6]; 0.8% in data set [7].

With “ziv-aflibercept (Zaltrap, 25 mg/mL) (Fc fusion)”, the abundance of dimer (% of total peak area) in [8] came out at 8%; in [9] it was 1.4%; in data set [10], 19%; in data set [11], 12.2%; in data set [12], 2.1%; in [13] it was 1.9%. The abundance of dimer (% of total peak area) in data set [14] is 1.9%; in [15] it was 12.4%; in data set [16] it was 7.8%; in data set [17] it was 7.7%; in data set [20], 1.8%; in [21], 2%. Moreover, the stoichiometry N was 2 in data set [14] and 10 in [16]. In addition, the remaining biological activity (ELISA against the control, test samples at 10 and 100 µg/ml) with VEGF [18] turned out to be 25%; with VEGF [19], 36%.
